In assay [1] the target is T1, human Y4 receptor (human, UniProt P50391 1-375). The experiment in a line: 125I-PP displacement.
Assay [2] concerns the target T1, human Y4 receptor. The experiment in a line: 125I-PP displacement. The source holds these as a separate data set.

Like-named read-outs stand apart in the source and are kept apart here. No end group written: not given here.

T1 sequence (P50391 whole entry): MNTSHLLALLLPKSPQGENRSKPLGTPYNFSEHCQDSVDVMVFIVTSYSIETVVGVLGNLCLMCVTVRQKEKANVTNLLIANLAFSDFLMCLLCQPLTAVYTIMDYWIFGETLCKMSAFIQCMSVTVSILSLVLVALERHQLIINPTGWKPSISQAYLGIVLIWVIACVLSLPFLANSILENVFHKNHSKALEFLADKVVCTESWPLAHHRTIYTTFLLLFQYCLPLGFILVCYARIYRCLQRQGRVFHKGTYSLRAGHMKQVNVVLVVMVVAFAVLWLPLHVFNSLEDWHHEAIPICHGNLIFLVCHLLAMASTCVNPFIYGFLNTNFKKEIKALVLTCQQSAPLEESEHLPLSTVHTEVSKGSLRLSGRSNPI

AAPLEPVYPGDNATPEELVKYYSALRRYINLLTRPRY [7112] came in with an IC50 in assay [1] of 0.095 nM.

PAPLEPVYPGDNATPEELVKYYSALRHYINMLTRPRY [7104]: the IC50 in assay [1] amounted to 0.225 nM.

PAPLEPVYPGDNATPEEINHYYSALRRYINMLTRPRY [7123] had an IC50 in assay [1] of 0.09 nM.

Turning to AAPLEPHYPGDNATPEQMARYYSELRRYINKLTRPRY [4059955], the IC50 in assay [2] was 0.044 nM.

APLEPVYPGDNATPEEIVKYFIELRRYINMLTRPRY [7124]: the IC50 in assay [1] amounted to 0.31 nM.

APLEPVYPGDNATPEELVKYYASLRRYINMLTRPRY [7109] showed an IC50 in assay [1] of 0.083 nM.

In assay [1], APLEPVYPGDNATPEELVKYAAELRRYINMLTRPRY [7163] showed an IC50 of 0.146 nM.

In assay [2], GAPLEPEYPGDNATPEQKARYAAALRRYINHLTRPRY [4060130] yielded an IC50 of 0.072 nM.

On to GAPLEPEAPGDNATPEQMAKYAAALRRYINKLTRPRY [4059977], for which the IC50 in assay [2] is 0.095 nM.

In assay [2], GAPLEPEYPGDNATPEQKAKYAAALRRYINHLTRPRY [4060274] registered an IC50 of 0.128 nM.

Turning to AAPLEPVYPGDNATPEQMAQYAADLRRYINKLTRPRY (ends and bridges not checked) [compound of SEQ ID NO:171 (code 7218)], the IC50 in assay [1] was 0.15 nM.

For DAPLEPVYPGDNATPEQMAQYAAALRRYINKLTRPRY [7216], the IC50 in assay [1] came to 0.109 nM.

Regarding AAPLEPVYPGDNATPEELARYAAELRRYINKLTRPRY [4060135], the IC50 in assay [2] amounted to 0.197 nM.

Molecule PAPLEPVYPGDNATPEQMAQYAAALRRYINKLTRPRY [7217] showed an IC50 in assay [1] of 0.066 nM.

With PAPLEPVYPGDNATPEQMAHYAAELRRYINMLTRPRY [7161], in assay [1], the IC50 was found to be 0.188 nM.

For DAPLEPVYPGDNATPEQMAQYAADLRRYINKLTRPRY [7219], the IC50 in assay [1] came to 0.22 nM.

GAPLEPVYPGDNATPEQMAHYAAELRRYINMLTRPRY [7162] yielded an IC50 in assay [1] of 0.219 nM.

Take CAPLEPVYPGDNATPEQMAQYAADLRRYINCLTRPRY [7117]: in assay [1], the IC50 turned out to be 0.351 nM.

For the molecule PAPLEPVYPGDNATPEQMAQYAADLRRYINKLTRPRY [7220], the IC50 in assay [1] stood at 0.1 nM.

Take PAPLEPVYPGDNATPEELVKYYASLRHYINMLTRPRY [7108]: in assay [1], the IC50 was 0.25 nM.

On to APLEPVYPGDNATPEEINHYYSALRRYINMLTRPRY [7122], for which the IC50 in assay [1] was determined as 0.118 nM.

For the molecule APLEPVYPGDNATPEELVKYYSALRRYINLLTRPRY [7111], the 50% inhibitory concentration (IC50) in assay [1] was found to be 0.077 nM.

As for APLEPVYPGDNATPEEIVHYFIELRRYINMLTRPRY [7125], the half-inhibitory concentration (IC50) in assay [1] is 0.1 nM.

Consider AAPLEPFYPGDDATPQQIAHYAAELRRYINTLTRPRY [7148], for which the 50% inhibitory concentration (IC50) in assay [1] amounted to 0.16 nM.

On to AAPLEPFYPGDDATPQQMAHYAAELRRYINTLTRPRY [7147], for which the IC50 in assay [1] came out at 0.148 nM.

In turn, AAPLEPVYPGDDATPQQMAQYAAELRRYINMLTRPRY [6866] yielded an IC50 in assay [1] of 0.17 nM.

GAPLEPTYPGDDATPEQLAKYAAELRRYINKLTRPRY [4060210] gave an IC50 in assay [2] of 0.106 nM.

The molecule APLEPVYPGDDATPQQIAHYYSELRRYINMLTRPRY [7135] came in with an IC50 in assay [1] of 0.18 nM.

In assay [1], APLEPVYPGDDATPQQMAHYYSELRRYINMLTRPRY [7136] showed an IC50 of 0.149 nM.

Turning to APLEPEYPGDDATPQQMAHYAAELRRYINMLTRPRY [7149], the IC50 in assay [1] stood at 0.119 nM.

As to PAPLEPVYPGDDATPQQMAHYYSELRRYINMLTRPRY [7137], in assay [1], the IC50 stood at 0.072 nM.

In assay [2], GAPLEPHYPGDNATPEEMAKYAAELRRYINKVTRPRY [4059947] had an IC50 of 0.066 nM.

In assay [2], GAPLEPHYPGDNATPEEMAKYATELRRYINKLTRPRY [4059932] gave an IC50 of 0.085 nM.

Consider PAPLEPHYPGDNATPEEMAKYATELRRYINKLTRPRY [4059934], for which the IC50 in assay [2] amounted to 0.108 nM.

Regarding GAPLEPHYPGDNATPEEMAKYASELRRYINKLTRPRY [4059935], in assay [2], the IC50 is 0.081 nM.

In the case of APLEPVYPGDNATPEQMAQYAADLRRYINCLTRPRY [7115], the IC50 in assay [1] was 0.229 nM.

As for APLEPVYPGDDATPEQMAHYAAELRRYINMLTRPRY [7165], the IC50 in assay [1] worked out at 0.183 nM.

For the molecule APLEPKYPGDNATPEQMAQYAAALRRYINMLTRPRY [7230], the IC50 in assay [1] turned out to be 0.21 nM.

In the case of APLEPKYPGDNATPEQMAQYAAALRRYINKLTRPRY [7231], the IC50 in assay [1] stood at 0.089 nM.

Turning to HAPLKPKAPGDNATPEQLAKYAAELRRYINKLTRPRY [4059861], in assay [2], the IC50 worked out at 0.1 nM.

A word on the IC50: it is the concentration needed to halve the response being measured.

The values above are taken from patent US20100279930A1 (published 2010).
